17 molecules from patent US20180037632A1 (BIONTECH, published 2018) can be followed below.

The target of assay [1] is T1, recombinant soluble human Seprase (rhuSeprase) (human, UniProt Q12884 29-760).
T1 construct: range 29-760; Secreted from CHO-S cells with a mouse Ig kappa secretion signal (not part of the protein in the assay); also called recombinant human Seprase; soluble fraction of human Seprase
T1 sequence: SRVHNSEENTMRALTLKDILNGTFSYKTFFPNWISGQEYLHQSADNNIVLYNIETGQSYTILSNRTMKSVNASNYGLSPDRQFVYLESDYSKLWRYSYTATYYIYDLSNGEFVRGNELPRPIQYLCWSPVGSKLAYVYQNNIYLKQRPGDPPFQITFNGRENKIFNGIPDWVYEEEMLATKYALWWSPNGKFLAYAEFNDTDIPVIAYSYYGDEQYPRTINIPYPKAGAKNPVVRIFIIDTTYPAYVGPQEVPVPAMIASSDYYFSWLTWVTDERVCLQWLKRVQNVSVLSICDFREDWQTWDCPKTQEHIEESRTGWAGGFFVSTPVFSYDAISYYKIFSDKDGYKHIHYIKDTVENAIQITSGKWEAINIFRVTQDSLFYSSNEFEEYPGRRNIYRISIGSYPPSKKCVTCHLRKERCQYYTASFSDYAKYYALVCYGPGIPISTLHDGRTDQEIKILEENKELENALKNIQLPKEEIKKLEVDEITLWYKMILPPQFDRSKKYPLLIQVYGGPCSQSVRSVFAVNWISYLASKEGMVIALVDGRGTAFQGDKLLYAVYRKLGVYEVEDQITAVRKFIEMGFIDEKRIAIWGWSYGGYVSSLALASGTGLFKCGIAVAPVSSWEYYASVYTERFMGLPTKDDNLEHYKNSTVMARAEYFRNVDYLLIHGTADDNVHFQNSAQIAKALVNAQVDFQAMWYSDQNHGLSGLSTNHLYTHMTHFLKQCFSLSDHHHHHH
In words: SPR (Biacore T-100), rhuSeprase immobilized on CM5, multi cycle kinetics, 1:1 fit. How it is done:
(§1) RhuSeprase (20 μg/ml in PBS, 5% mannitol, 5% trehalose) was immobilized on an amino reactive Series S Sensor Chip CM5 (GE Healthcare). For binding analysis of monomeric Microbodies rhuSeprase was loaded to a maximum of 7500 RU, for oligomeric Microbodies to a maximum of 700 RU. Monomeric Microbodies were measured using a multi cycle kinetic method in a concentration range of 3.125 to 1000 nM based on expected dissociation constant. Association step was measured over a time period of 60-90 seconds, dissociation over 420 seconds. Trimeric Mircobodies were measured using a single cycle kinetics method in a concentration range of 0.3125 to 5 nM (association for 90 seconds, dissociation 420 seconds). Binding kinetics and steady state analysis were calculated using a 1:1 binding model (Biacore T-100 Evaluation Software, GE Healthcare).
(§2) The binding kinetics of monomeric and trimeric Seprase-binding Microbodies was determined using surface plasmon resonance spectroscopy on a Biacore T-100 system.

Assay [2] concerns the target T1, recombinant soluble human Seprase …. Description: SPR (Biacore T-100), rhuSeprase immobilized on CM5, steady state analysis, 1:1 fit. The protocol:
as §1, §2

Assay [3] shares this target. In words: SPR (Biacore T-100). How it is done: as §1, §2
On the technique in general: In SPR one partner is held on a chip, and binding of the other changes the refractive index at the surface.

Assay [4] has the same target. Description: SPR (Biacore T-100), rhuSeprase immobilized on CM5, single cycle kinetics, 1:1 fit. The protocol: as §1, §2
Assay [5] shares this target. Description: direct ELISA on coated rhuSeprase, Trx fusion detected with anti-S-tag-HRP; apparent KD from one site saturation fit; Error 1,02; R2 0,9976. How it is done: (§3) For protein based ELISA analysis 5 μg of the respective recombinant protein (rhuSeprase; streptavidin: Sigma; DPP-IV: R&D Systems, BSA: Eurobio) were immobilized per well of a MaxiSorp™ plate (Nunc) by overnight incubation in coating buffer at 4° C. After washing thrice with 300 μl PBS-T/well on a Hydrospeed plate washer (Tecan) the wells were blocked with 1×Casein solution (Sigma, diluted in PBS) for 2 h at RT. Subsequently, the wells were washed as indicated above. 100 μl of the respective Trx-miniprotein fusion diluted in PBS-T was then added and incubated for 1 h at 4° C. […] For competition ELISAs a fixed concentration of 3 nM Trx-miniprotein fusion was mixed with varying concentration (0.64-3167 nM) of solitary miniprotein before incubation. Binding of the Trx-fusion was detected after a PBS-T washing procedure using HRP coupled anti S-tag antibody as described above. Apparent Kd was calculated using Sigmaplot 10 and an one site saturation binding model for fitting of the data.
In general terms: In an ELISA, binding on a coated surface is turned into a signal by an enzyme label.

Assay [6] shares this target. Description: direct ELISA on coated rhuSeprase; binding relative to the parental Trx-MC-FA-010. How it is done: as §3
Assay [7] has the same target. Description: direct ELISA on coated rhuSeprase, Trx fusion detected with anti-S-tag-HRP; apparent KD from one site saturation fit; Error 0,54; R2 0,9981. The protocol: as §3
Assay [8] has the same target. In words: direct ELISA on coated rhuSeprase, Trx fusion detected with anti-S-tag-HRP; apparent KD from one site saturation fit; Error 1,17; R2 0,9981. The protocol: as §3
Assay [9] has the same target. In words: direct ELISA on coated rhuSeprase, Trx fusion detected with anti-S-tag-HRP; apparent KD from one site saturation fit; Error 3,04; R2 0,9976. How it is done:
as §3

The target is the same in assay [10]. Description: direct ELISA on coated rhuSeprase, Trx fusion detected with anti-S-tag-HRP; apparent KD from one site saturation fit; Error 1,17; R2 0,9977. How it is done:
as §3

For assay [11] the target is unchanged. In words: direct ELISA on coated rhuSeprase, Trx fusion detected with anti-S-tag-HRP; apparent KD from one site saturation fit; Error 1,76; R2 0,9973. How it is done: as §3

Positions of bridges follow the written chain, without caps; N, C: chain ends. No end group written: not given here.

B1: MC-FA-012 (designed binder)
chain: GACPYSNWTPGRGPDCRRDSDCPGRCICRGNGYCG
modifications: disulfide (positions not given here)
notes: it is derived from MC-FA-010 and K2A; also called MC-FA-012 (K2A); monomeric MC-FA-012 Microbody
As for B1, in assay [1], the Kd turned out to be 340 nM, the koff turned out to be 0.139 s⁻¹ and the association rate constant (kon) came to 408000 M⁻¹ s⁻¹. Moreover, the Kd in assay [2] was 246 nM.

B2: AlexaFluor680-(MC-FA-012)3 (designed binder, not shown: small tags and cut ends)
chain 1: GACPYSNWTPGRGPDCRRDSDCPGRCICRGNGYCG
chain 2: GACPYSNWTPGRGPDCRRDSDCPGRCICRGNGYCG
chain 3: GACPYSNWTPGRGPDCRRDSDCPGRCICRGNGYCG
modifications: each of chains 1-3: N-terminal aminooxy group oxime-ligated to the anchor; three disulfides (cystine knot) per chain; anchor carries AlexaFluor680 at its N-terminal amine
notes: Purchased from Pepscan; also called AF680-(MC-FA-012)3
As for B2, the “times slower offrate compared to MC-FA-012” value in [3] is roughly 134 fold. Besides, in assay [4], the Kd came to 0.0615 nM and the kon is 1.68e+07 M⁻¹ s⁻¹. Moreover, in assay [2], the Kd is 0.669 nM.

B3: Trx-MC-FA-015 (designed binder)
chain: GKCPYANWTPGRGPDCRRDSDCPGRCICRGNGYCG
modifications: disulfide 16-28, 22-34, 3-26; also: N-terminal Trx-His6-S-tag fusion carrier, not in chain
notes: the position follows from the order of the rows; also called alanine scan variant S6A of MC-FA-010, Trx fusion; not shown: thioredoxin-A, His6 tag, S-tag and linkers of the pET-32-LibEx fusion (N-terminal carrier)
Regarding B3, in assay [5], the Kd stood at 16.2 nM. For the same molecule, the “Relative Bindung im Vergleich zu Trx-MC-FA-010 [%]” value in assay [6] turned out to be 93.6%.

B4: Trx-MC-FA-012 fusion protein (designed binder)
chain: GACPYSNWTPGRGPDCRRDSDCPGRCICRGNGYCG
modifications: disulfide 16-28, 22-34, 3-26; also: N-terminal Trx-His6-S-tag fusion carrier, not in chain
notes: also called MC-FA-012 (K2A) alanine scan variant; not shown: N-terminal carrier of the pET-32-LibEx fusion (thioredoxin-A, His tag, S-tag, thrombin site, vector linkers)
As to B4, the “Relative Bindung im Vergleich zu Trx-MC-FA-010 [%]” value in assay [6] turned out to be 160%. Moreover, the Kd in [7] was found to be 9.49 nM.

B5: Trx-MC-FA-011 (designed binder)
chain: AKCPYSNWTPGRGPDCRRDSDCPGRCICRGNGYCG
modifications: disulfide 16-28, 22-34, 3-26; also: N-terminal Trx-His6-S-tag fusion carrier, letters not given here
notes: the position follows from the order of the rows; also called alanine scan variant G1A of MC-FA-010, Trx fusion; not shown: Thioredoxin-A, His-tag (H6), S-tag and linker of the pET-32-LibEx fusion, N-terminal of the miniprotein
As for B5, the “Relative Bindung im Vergleich zu Trx-MC-FA-010 [%]” value in assay [6] turned out to be 74.5%. Moreover, the Kd in assay [8] amounted to 20.3 nM.

B6: Trx-MC-FA-013 (designed binder)
chain: GKCAYSNWTPGRGPDCRRDSDCPGRCICRGNGYCG
modifications: disulfide 16-28, 22-34, 3-26; also: N-terminal Trx-His6-S-tag fusion carrier, not in chain
notes: the position follows from the order of the rows; also called alanine scan variant P4A of MC-FA-010, Trx fusion; not shown: Thioredoxin-A, His-tag (H6), S-tag and linker of the pET-32-LibEx fusion, N-terminal of the miniprotein
Regarding B6, the Kd in assay [9] was found to be 44.9 nM. In addition, the “Relative Bindung im Vergleich zu Trx-MC-FA-010 [%]” value in assay [6] was 33.7%.

B7: Trx-MC-FA-0115 (designed binder)
chain: GKCPYSNWTPGRGPDCRRDSDCPGACICRGNGYCG
modifications: disulfide 16-28, 22-34, 3-26; also: N-terminal Trx-His6-S-tag fusion carrier, not in chain
notes: also called alanine scan variant R25A of MC-FA-010, Trx fusion; not shown: Thioredoxin-A, His-tag (H6), S-tag and linker of the pET-32-LibEx fusion, N-terminal of the miniprotein
As to B7, in assay [6], the “Relative Bindung im Vergleich zu Trx-MC-FA-010 [%]” value is 80.7%. Moreover, in [10], the Kd is 18.8 nM.

B8: Trx-MC-FA-0114 (designed binder)
chain: GKCPYSNWTPGRGPACRRDSDCPGRCICRGNGYCG
modifications: disulfide 16-28, 22-34, 3-26; also: N-terminal Trx-His6-S-tag fusion carrier, not in chain
notes: the position follows from the order of the rows; also called alanine scan variant D15A of MC-FA-010, Trx fusion; not shown: Thioredoxin-A, His-tag (H6), S-tag and linker of the pET-32-LibEx fusion, N-terminal of the miniprotein
On to B8, for which, in assay [11], the Kd is 25.6 nM. Besides, in [6], the “Relative Bindung im Vergleich zu Trx-MC-FA-010 [%]” value came out at 59.2%.
Regarding GSGACPYSNWTPGRGPDCSSDSDCPGACICLENGFCG (designed binder) [MO-FA-012], in assay [1], the Kd is 1340 nM, the koff turned out to be 0.513 s⁻¹ and the kon turned out to be 382000 M⁻¹ s⁻¹. Moreover, the Kd in assay [2] is 1160 nM.
In the same order, the values of GSGACPYSNWTPGRGPDCSQDSDCLAGCVCGPNGFCG (designed binder) [ET-FA-012] are 1400 nM, 0.853 s⁻¹, 608000 M⁻¹ s⁻¹ and 4540 nM.
For GSGACPYTRWAVGRGPDCRRDSDCPGRCICRGNGYCG (designed binder) [FA8-D03], in assay [1], the Kd worked out at 147 nM, the koff worked out at 0.138 s⁻¹ and the kon is 939000 M⁻¹ s⁻¹. The Kd in [2] was determined as 151 nM.
In the same order, the values of GSGACPYTRWQPGRGPSCRRDSDCPGRCICRGNGYCG (designed binder) [FA8-D05] are 193 nM, 0.812 s⁻¹, 4.21e+06 M⁻¹ s⁻¹ and 177 nM.
In the same order, the values of GSGACPYTNWRPGRGPACRRDSDCPGRCICRGNGYCG (designed binder) [FA8-C09] are 296 nM, 2.94 s⁻¹, 9.92e+06 M⁻¹ s⁻¹ and 243 nM.
The corresponding values for GSGACPYSRWAVGRGPDCRRDSDCPGRCICRGNGYCG (designed binder) [FA8-D06] are 153 nM, 0.053 s⁻¹, 346000 M⁻¹ s⁻¹ and 113 nM.
For GSGACPYSNWAVGRGPSCRRDSDCPGRCICRGNGYCG (designed binder) [FA8-F04], in assay [1], the Kd is 321 nM, the koff came out at 0.2 s⁻¹ and the kon was 624000 M⁻¹ s⁻¹. Further, in assay [2], the Kd came out at 332 nM.
Consider GSGACPYTNWHPGRGPACRRDSDCPGRCICRGNGYCG (designed binder) [FA8-G12], for which, in [1], the Kd is 487 nM, the koff amounted to 0.317 s⁻¹ and the kon came out at 651000 M⁻¹ s⁻¹. Besides, the Kd in [2] stood at 470 nM.
In the same order, the values of GSGACPYSRWMPGRGPSCRRDSDCPGRCICRGNGYCG (designed binder) [FA7-A05] are 205 nM, 0.0503 s⁻¹, 246000 M⁻¹ s⁻¹ and 102 nM.

For orientation: koff means the first-order rate constant of dissociation. What is called kon is the second-order rate constant of association.
